# Measurements from patent US20200407428A1 (GOVERNMENT OF THE UNITED STATES OF AMERICA AS REPRESENTED …, published 2020).
# Substitutions are numbered along the chain they refer to.
# T1: Glycoprotein of Marburg virus isolate Musoke in whole irradiated virus (Marburg virus, isolate Musoke, UniProt P35253 19-681)
# T1 sequence: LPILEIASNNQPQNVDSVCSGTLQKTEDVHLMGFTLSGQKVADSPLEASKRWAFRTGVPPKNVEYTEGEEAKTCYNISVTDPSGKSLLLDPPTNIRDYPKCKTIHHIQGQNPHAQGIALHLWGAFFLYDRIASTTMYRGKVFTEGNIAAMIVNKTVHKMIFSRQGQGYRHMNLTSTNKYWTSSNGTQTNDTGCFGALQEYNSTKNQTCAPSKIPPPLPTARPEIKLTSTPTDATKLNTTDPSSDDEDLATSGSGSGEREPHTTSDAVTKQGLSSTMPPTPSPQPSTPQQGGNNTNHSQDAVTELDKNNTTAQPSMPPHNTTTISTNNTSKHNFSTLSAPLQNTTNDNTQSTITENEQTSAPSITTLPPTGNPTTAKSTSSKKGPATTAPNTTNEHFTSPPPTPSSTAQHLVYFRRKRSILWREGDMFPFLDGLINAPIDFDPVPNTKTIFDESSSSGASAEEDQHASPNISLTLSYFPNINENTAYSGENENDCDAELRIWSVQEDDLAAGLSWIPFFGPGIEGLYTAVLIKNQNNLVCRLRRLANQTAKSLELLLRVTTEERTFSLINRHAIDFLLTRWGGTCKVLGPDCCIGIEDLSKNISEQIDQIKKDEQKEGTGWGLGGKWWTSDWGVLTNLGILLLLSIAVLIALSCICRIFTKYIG
# T2: Glycoprotein of Ravn virus in whole irradiated virus (Ravn virus, UniProt Q1PDC7 19-681)
# T2 sequence: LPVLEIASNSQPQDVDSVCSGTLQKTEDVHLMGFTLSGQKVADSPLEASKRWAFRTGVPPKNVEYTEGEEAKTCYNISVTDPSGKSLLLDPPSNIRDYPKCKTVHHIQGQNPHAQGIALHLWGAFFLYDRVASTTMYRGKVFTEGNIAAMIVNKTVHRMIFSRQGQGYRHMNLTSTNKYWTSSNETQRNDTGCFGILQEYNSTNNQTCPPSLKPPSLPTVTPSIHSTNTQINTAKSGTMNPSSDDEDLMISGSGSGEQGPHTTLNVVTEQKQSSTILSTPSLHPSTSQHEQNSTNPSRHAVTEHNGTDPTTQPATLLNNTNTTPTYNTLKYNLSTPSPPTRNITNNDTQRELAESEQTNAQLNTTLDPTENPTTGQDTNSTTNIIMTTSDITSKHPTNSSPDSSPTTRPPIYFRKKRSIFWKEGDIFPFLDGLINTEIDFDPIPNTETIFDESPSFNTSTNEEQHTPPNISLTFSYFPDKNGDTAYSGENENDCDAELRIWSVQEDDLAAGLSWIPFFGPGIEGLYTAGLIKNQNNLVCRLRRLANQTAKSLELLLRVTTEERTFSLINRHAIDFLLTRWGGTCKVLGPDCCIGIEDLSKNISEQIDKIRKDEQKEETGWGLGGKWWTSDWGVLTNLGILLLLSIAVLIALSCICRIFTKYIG
# B1: scFv R4G7 (scFv, V domains shown)
# VH: EVQLLESGGDLVQPGESLRLSCVVSGISFSNHGMTWVRQAPGKGLDWVSSIDSDGGGTFYADSVKGRFTISRDDSNNTVSLQMNSLRVEDTAVYYCAARHEYSDYYWGRGVPVTVSS
# VL: DIELTQSPSILSVSPGERATLSCRASQSVGNRLAWYHQRPGQAPRLLIYGASSRPTGIPDRFSASGSGTEFTLTISSLEPEDVGVYYCQQNSKWPLTFGGGTKVEIK
# B2: scFv R4G8 (scFv, V domains shown)
# VH: EVQLVESGGGLVQPGESLRLSCVVSGLSFSNHGVTWVRQAPGKGLDWVSSIDTDGGGTFYGDSVKGRFTISRDNSKSTVSLEMNSLRVEDTAVYYCAARQEYSDYYWGRGVLVTVSS
# VL: B1 VL with S9A, V13L, S22L, S28N, A64G, N91D, K93N, K103R
# B3: scFv R3H2 (scFv, V domains shown)
# VH: B2 VH with V5L, N74D, S77N, L112P
# VL: B1 VL with S9A, V13L, S22L, S28N, A64G, N91D, K93N, K103R
# B4: scFv R4H12 (scFv, V domains shown)
# VH: B2 VH with E1Q, V5L, N74D, S77N, L112P
# VL: B1 VL with D1E, I10T, N31S, R39S, V85L
# B5: scFv R4G11 (scFv, V domains shown)
# VH: B2 VH with E6Q, N74D, S77N, L112P
# VL: B1 VL with I10T, N31S, A64G, V85L
# B6: scFv R3C4 (scFv, V domains shown)
# VH: QVQLEQSGAEVKKPGASVKVSCKASGFTSGSYAISWVRQAPGQGLEWMGVIIPLVGVTNYAEKFQGRVTFTADTSTSTAYMELSSLRSEDTATYFCARDPYCSGNGCYGWYDVWGPGVLVTVSS
# VL: DIELTQSPSSLSASVGDKVTISCRASQYIKSWLAWYQQKPGKAPKLLIYKASSLQSGVPSRFSGSGSGTDFTLTITNVQPEDFATYYCQQYDSAPFTFGPGTKLDIR
# B7: scFv R4B11 (scFv, V domains shown)
# VH: B6 VH with K12R, K13E, F27L, S35T, S84T, E89D, F95Y, Y101F, W110Y, L119K
# VL: DIELTQSPSSLSASVGDRVTITCRASQDISSWLAWYQQKPGKAPKLLISSASTLQSGVPSRFSGSGSGTDFTLTINSLQSEDFATYYCQQYNSVPLTFGGGTKVEMK
# B8: R4B11 scFv-Fc (Fc fusion)
# VH: B6 VH with K12R, K13E, F27L, S35T, S84T, E89D, F95Y, Y101F, W110Y, L119K
# VL: B7 VL
# Molecular target: MARV Ci67 GP1-649 (Marburg virus, isolate Ci67)
# Assay: SPR (BIAcore 3000), GP1-649 amine-coupled on CM5, scFv in solution
Binder,Kd [nM],koff [s⁻¹],kon [M⁻¹ s⁻¹]
B1,4.6,0.000379,81900
B2,68,0.0063,92300
B3,155,0.000993,6390
B4,3.9,0.000565,146000
B5,6.3,0.000475,75000
B6,33,0.000386,11600
B7,4.6,0.000407,87600

# Molecular target: T1, Glycoprotein of Marburg virus isolate …
# Assay: Western blot of scFv-Fc on whole irradiated virus, reduced
row,Binder,binding result
1,B8,binds

# Molecular target: T2, Glycoprotein of Ravn virus in whole …
# Assay: Western blot on whole irradiated virus, reduced
row,Binder,binding result
1,B8,no binding (tested: 1 ug/ml)
